Results reported in patent publication US20150353909.

Legend:
[1] = biological target: K48-tetraubiquitin chains, P0CG48
[2] = biological target: K63-tetraubiquitin chains, P0CG48
[3] = biological target: T1, HA3-RUB-GST, Q9SHE7
T1 chain: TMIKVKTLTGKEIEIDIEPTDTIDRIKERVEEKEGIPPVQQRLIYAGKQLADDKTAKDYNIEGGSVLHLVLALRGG

[4] = biological target: HA3-UBQ-GST [GST: P08515]
[5] = biological target: purified recombinant linear UB dimers
[6] = biological target: purified recombinant linear UB tetramers
[7] = biological target: purified recombinant linear UB trimers

Sequence of K63-tetraubiquitin chains, P0CG48 (P0CG48 whole entry, looked up): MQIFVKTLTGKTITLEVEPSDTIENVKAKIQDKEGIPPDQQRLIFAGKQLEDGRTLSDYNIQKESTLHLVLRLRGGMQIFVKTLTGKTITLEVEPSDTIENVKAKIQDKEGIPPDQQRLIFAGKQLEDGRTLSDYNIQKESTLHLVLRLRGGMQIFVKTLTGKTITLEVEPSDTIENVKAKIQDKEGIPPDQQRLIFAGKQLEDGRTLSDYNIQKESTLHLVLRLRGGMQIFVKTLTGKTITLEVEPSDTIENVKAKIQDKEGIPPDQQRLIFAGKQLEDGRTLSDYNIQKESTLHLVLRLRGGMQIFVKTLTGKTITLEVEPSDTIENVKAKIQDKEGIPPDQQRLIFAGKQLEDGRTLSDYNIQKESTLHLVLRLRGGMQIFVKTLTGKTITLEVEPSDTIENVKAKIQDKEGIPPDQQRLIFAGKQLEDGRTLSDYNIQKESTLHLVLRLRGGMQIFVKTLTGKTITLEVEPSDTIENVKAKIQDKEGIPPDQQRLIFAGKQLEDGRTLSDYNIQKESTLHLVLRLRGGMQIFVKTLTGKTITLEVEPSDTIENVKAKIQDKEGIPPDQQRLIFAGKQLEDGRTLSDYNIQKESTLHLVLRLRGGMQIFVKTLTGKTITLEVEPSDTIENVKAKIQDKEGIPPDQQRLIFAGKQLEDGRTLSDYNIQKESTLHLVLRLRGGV
Sequence of K48-tetraubiquitin chains, P0CG48 (P0CG48 whole entry, looked up): as above
Sequence of HA3-UBQ-GST [GST: P08515] (P08515 whole entry, looked up): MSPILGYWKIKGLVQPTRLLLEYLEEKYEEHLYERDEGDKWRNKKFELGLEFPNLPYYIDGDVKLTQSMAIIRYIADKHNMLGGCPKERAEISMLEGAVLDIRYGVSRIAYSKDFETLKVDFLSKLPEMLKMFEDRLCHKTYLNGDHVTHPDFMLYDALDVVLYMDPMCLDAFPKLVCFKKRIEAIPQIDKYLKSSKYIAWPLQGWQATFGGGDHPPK

B1: OTU9-NΔ 1-100 (protein)
chain: GQENQGEAIDITQESDILHNHNGNMEDKNVARIRFEGGQSSPSRDDDSVCSVEIEEESWSEVGKRLNQMIPIAHVPKINGELPSEDEQISDHERLFQRLQLYGLVENKIEGDGNCQFRSLSDQLYRSPEHHNFVREQVVNQLAYNREIYEGYVPMAYNDYLKAMKRNGEWGDHVTLQAAADLFGVRMFVITSFKDTCYIEILPHFQKSNRLICLSFWAEVHYNSIYPEGELPIPEGKKKKKYWVF
For B1, the cleavage [1] was “comparable to that catalyzed by the corresponding wild-type proteins” and the cleavage [2] was “comparable to that catalyzed by the corresponding wild-type proteins”.

B2: OTU4c-NΔ (protein)
chain: SGLSRRHYTGFRVSVSNRPSSWHDKGLFGFAYTGVIVSLLVCYSSTSQSAYADSSRDKDANNVHHHSSDGKFHNGKRVYTDYSIIGIPGDGRCLFRSVAHGFCLRSGKLAPGEKMQRELADELRTRVADEFIQRRQETEWFVEGDFDTYVRQIRDPHVWGGEPELFMASHVLQMPITVYMKDDKAGGLISIAEYGQEYGKDDPIRVLYHGFGHYDALLLHESKASIPKSKL
With B2 the catalytic activities [3] was “did not modify”, the catalytic activities [4] was “did not modify” and the catalytic activities [1] was “did not modify”. The catalytic activities [2] was “did not modify”, the catalytic activities [5] was “did not modify” and the catalytic activities [6] was “did not modify”. For the same protein, the catalytic activities [7] was “did not modify”.

B3: OTU10-NΔ1-173 (protein)
chain: RLNQMVPIPYIPKINGEIPPEEEAVSDHERLRNRLEMFDFTEVKVPGDGNCQFRALADQLYKTADRHKHVRRQIVKQLKSRPDSYQGYVPMDFSDYLRKMSRSGEWGDHVTLQAAADAYRVKIVVLTSFKDTCYIEILPTSQESKGVIFLSFWAEVHYNAIYLNRDTSETELQRKRKWWRFGN
In the case of B3, the cleavage [1] is reported as “comparable to that catalyzed by the corresponding wild-type proteins” and the cleavage [2] is reported as “comparable to that catalyzed by the corresponding wild-type proteins”.

B4: OTU9-NΔ1-172 (protein)
chain: AHVPKINGELPSEDEQISDHERLFQRLQLYGLVENKIEGDGNCQFRSLSDQLYRSPEHHNFVREQVVNQLAYNREIYEGYVPMAYNDYLKAMKRNGEWGDHVTLQAAADLFGVRMFVITSFKDTCYIEILPHFQKSNRLICLSFWAEVHYNSIYPEGELPIPEGKKKKKYWVF
In the case of B4, the cleavage [1] is reported as “comparable to that catalyzed by the corresponding wild-type proteins” and the cleavage [2] is reported as “comparable to that catalyzed by the corresponding wild-type proteins”.

B5: GST-OTU4c-C136S (protein)
chain: MMICYSPITTCSRNAISIKRHLGSRLYGVVAHGSSKFSCYSLLSGLSRRHYTGFRVSVSNRPSSWHDKGLFGFAYTGVIVSLLVCYSSTSQSAYADSSRDKDANNVHHHSSDGKFHNGKRVYTDYSIIGIPGDGRSLFRSVAHGFCLRSGKLAPGEKMQRELADELRTRVADEFIQRRQETEWFVEGDFDTYVRQIRDPHVWGGEPELFMASHVLQMPITVYMKDDKAGGLISIAEYGQEYGKDDPIRVLYHGFGHYDALLLHESKASIPKSKL
B5 was tested, and the “fusion protein cleavage activity” value [3] was “generally abolished”, the “fusion protein cleavage activity” value [4] was “generally abolished” and the cleavage activity [1] was “completely abolished”. The cleavage activity [2] was “completely abolished”, the “linear UB polymer cleavage activity” value [5] was “generally abolished” and the “linear UB polymer cleavage activity” value [6] was “generally abolished”. For the same protein, the “linear UB polymer cleavage activity” value [7] was “generally abolished”.

B6: OTU7a-C48S (protein)
chain: MAKTKQQKSKPKKQPHQKQGKDCDLSQFRAQLDALGLKIIQVTADGNSFFRAIADQLEGNEDEHNKYRNMIVLYIVKNREMFEPFIEDDVPFEDYCKTMDDDGTWAGNMELQAASLVTRSNICIHRNMSPRWYIRNFEDTRTRMIHLSYHDGEHYNSVRSKEDACGGPARPVVIEADAKVSAASKQAKATESKSKNKADKCHVNAGAIKVVMSGSCCDNTEKAEQVLLQVNGDVDAAIEFLIADQGMESLTENDTETASASDTINPKHASDSPMENTEQAREELIEEESASGNNSETVQAKCTTQTDDKKIPRNKTCPCGSKKKYKSCCGTATGRSSVKLLVSQTMESKKGRKNLRRGTSNEVEANAPDVGALCI
B6 was tested, and the cleavage activity [1] was “completely abolished” and the cleavage activity [2] was “completely abolished”.

B7: OTU1-C92S (protein)
chain: MQNQIDMVKDEAEVAASISAIKGEEWGNCSSVEDQPSFQEEEAAKVPYVGDKEPLSSLAAEYQSGSPILLEKIKILDSQYIGIRRTRGDGNSFFRSFMFSYLEHILESQDRAEVDRIKVNVEKCRKTLQNLGYTDFTFEDFFALFLEQLDDILQGTEESISYDELVNRSRDQSVSDYIVMFFRFVTAGDIRTRADFFEPFITGLSNATVDQFCKSSVEPMGEESDHIHITALSDALGVAIRVVYLDRSSCDSGGVTVNHHDFVPVGITNEKDEEASAPFITLLYRPGHYDILYPKPSCKVSDNVGK
B7 was tested, and the cleavage activity [1] was “completely abolished”, the cleavage activity [2] was “completely abolished” and the “linear UB polymer cleavage activity” value [5] was “generally abolished”. The “linear UB polymer cleavage activity” value [6] was “generally abolished” and the “linear UB polymer cleavage activity” value [7] was “generally abolished”.

B8: OTU1-D89E (protein)
chain: MQNQIDMVKDEAEVAASISAIKGEEWGNCSSVEDQPSFQEEEAAKVPYVGDKEPLSSLAAEYQSGSPILLEKIKILDSQYIGIRRTRGEGNCFFRSFMFSYLEHILESQDRAEVDRIKVNVEKCRKTLQNLGYTDFTFEDFFALFLEQLDDILQGTEESISYDELVNRSRDQSVSDYIVMFFRFVTAGDIRTRADFFEPFITGLSNATVDQFCKSSVEPMGEESDHIHITALSDALGVAIRVVYLDRSSCDSGGVTVNHHDFVPVGITNEKDEEASAPFITLLYRPGHYDILYPKPSCKVSDNVGK
B8 was tested, and the cleavage activity [1] was “completely abolished”, the cleavage activity [2] was “completely abolished” and the “linear UB polymer cleavage activity” value [5] was “to a similar extent as the wild-type protein”. The “linear UB polymer cleavage activity” value [6] was “to a similar extent as the wild-type protein” and the “linear UB polymer cleavage activity” value [7] was “to a similar extent as the wild-type protein”.

B9: OTU1-H288R (protein)
chain: MQNQIDMVKDEAEVAASISAIKGEEWGNCSSVEDQPSFQEEEAAKVPYVGDKEPLSSLAAEYQSGSPILLEKIKILDSQYIGIRRTRGDGNCFFRSFMFSYLEHILESQDRAEVDRIKVNVEKCRKTLQNLGYTDFTFEDFFALFLEQLDDILQGTEESISYDELVNRSRDQSVSDYIVMFFRFVTAGDIRTRADFFEPFITGLSNATVDQFCKSSVEPMGEESDHIHITALSDALGVAIRVVYLDRSSCDSGGVTVNHHDFVPVGITNEKDEEASAPFITLLYRPGRYDILYPKPSCKVSDNVGK
In the case of B9, the cleavage activity [1] is reported as “completely abolished”, the cleavage activity [2] is reported as “completely abolished” and the “linear UB polymer cleavage activity” value [5] is reported as “generally abolished”. The “linear UB polymer cleavage activity” value [6] was “generally abolished” and the “linear UB polymer cleavage activity” value [7] was “generally abolished”.

B10: OTU10-NΔ1-125 (protein)
chain: EWIGNDNDQDGRSDDSVNVFSCSSPSDTDEYVYSWESDQCDADGEFGRRLNQMVPIPYIPKINGEIPPEEEAVSDHERLRNRLEMFDFTEVKVPGDGNCQFRALADQLYKTADRHKHVRRQIVKQLKSRPDSYQGYVPMDFSDYLRKMSRSGEWGDHVTLQAAADAYRVKIVVLTSFKDTCYIEILPTSQESKGVIFLSFWAEVHYNAIYLNRDTSETELQRKRKWWRFGN
For B10, the cleavage [1] was “comparable to that catalyzed by the corresponding wild-type proteins” and the cleavage [2] was “comparable to that catalyzed by the corresponding wild-type proteins”.
